Measured values published in patent US20210277053A1.
Read-outs that look alike come from different tables or passages of the source.

What was measured:
Assay in all cases: ELISA on immobilised human gamma globulin, anti-6-His detection; antibody-binding activity after 0.5 M NaOH, 25 C, 15 h divided by activity without alkali treatment
[1] = biological target: gamma globulin (manufactured by The Chemo-Sero-Therapeutic Research Institute), a human antibody (human)
[2] = biological target: gamma globulin (manufactured by The Chemo-Sero-Therapeutic Research Institute), a human antibody (human); remark: listed apart in the source
[3] = biological target: gamma globulin (manufactured by The Chemo-Sero-Therapeutic Research Institute), a human antibody (human); remark: listed apart in the source
[4] = biological target: gamma globulin (manufactured by The Chemo-Sero-Therapeutic Research Institute), a human antibody (human); remark: listed apart in the source

Row | Substance | Remaining activity [%] [1] [%] | Remaining activity [%] [2] [%] | Remaining activity [%] [3] [%] | Remaining activity [%] [4] [%]
1 | SpA7a (SpA6a with Val40Ala) (designed binder) | 89 | – | – | –
2 | SpA7b (SpA6a with Asn3Ile) (designed binder) | – | 88 | – | –
3 | SpA6a (SpA5d with Glu15Ala) (designed binder) | 86 | 83 | 91 | –
4 | SpA6c (SpA6a with Lys(Glu)58Val) (designed binder) | 87 | – | – | –
5 | SpA5d (SpA4a with Asn11Lys) (designed binder) | 89 | – | 88 | 86
6 | SpA6b (SpA6a with Lys(Glu)58Asp) (designed binder) | 87 | – | – | –
7 | SpA5e (SpA4a with Asn11Tyr) (designed binder) | 85 | – | – | –
8 | SpA5f (SpA5d with Lys(Glu)58Gly) (designed binder) | – | – | 90 | –
